Reference: US20120207760A1

Assays:
[1] = molecular target: 23 amino acid synthetic M2e peptide of A/Fort Worth/1/50 (influenza A virus A/Fort Worth/1/50 (H1N1)); experiment: ELISA on the 23mer M2e peptide (FIG. 14b)
[2] = molecular target: M2 protein of influenza A/Wisconsin/67/05 (H3N2), on inactivated whole virions (Influenza A virus A/Wisconsin/67/2005 (H3N2)); experiment: ELISA, positive control antibody on inactivated whole virions

Chain of TCN-032 (8I10) (antibody) (VH): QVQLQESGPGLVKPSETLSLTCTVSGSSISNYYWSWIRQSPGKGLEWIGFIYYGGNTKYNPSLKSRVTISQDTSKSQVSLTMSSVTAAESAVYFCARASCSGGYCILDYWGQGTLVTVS
Chain of TCN-032 (8I10) (antibody) (VL): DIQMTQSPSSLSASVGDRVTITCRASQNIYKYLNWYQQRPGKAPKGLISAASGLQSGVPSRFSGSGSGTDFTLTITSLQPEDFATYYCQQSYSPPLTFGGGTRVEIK

Substance | EC50 [1] [µg/mL] | OD450 [2] [OD450]
chimeric mouse V-region/human IgG1 kappa 14C2 antibody | 0.01 | –
TCN-032 (8I10) (antibody) | – | 3.62
